Assay results as given in PMC3785227.

Biological target: stripped core gp120 (HIV strain YU2), displayed on yeast (HIV-1 strain YU2)
Assay: flow cytometry on cells

Row | Substance | Kd
1 | b13, non-neutralizing CD4 binding site-directed anti-gp120 antibody | 0.9 nM
2 | b12, broadly neutralizing anti-gp120 antibody against the CD4 binding site | 0.041 nM
